Assay results published in US20210115426A1 (BOARD OF REGENTS OF THE UNIVERSITY OF OKLAHOMA, published 2021).
One block for each binder: values may come before it. Non-standard residues stand in square brackets, D forms with d. No end group written: not given here. AEEA = NCCOCCOCC(=O)O

What was measured:
amyloid β1-42 (Aβ1-42) [1] = target: T1, amyloid β1-42 (Aβ1-42) (UniProt P05067 672-713); assay: ELISA, peptide coated, Aβ1-42 added, anti-Aβ antibody, absorbance at 492 nm (FIG. 21)
T1 construct: domain: Aβ1-42; Added in solution at 150 nM in the ELISA; Aβ1-42 is a fragment of it; also called amyloid beta; the 42-amino acid form of Aβ
T1 sequence (P05067 672-713 limits assumed): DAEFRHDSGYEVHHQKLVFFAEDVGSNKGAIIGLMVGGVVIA
Description: (§1) BSA was from Sigma Aldrich. […] Plate coating was done at room temperature for 2 hours with shaking and then at 4° C. overnight. Plates were washed three times in PBST (PBS+0.05% tween), then blocked with 3% BSA in PBST for 1 hour at room temperature with shaking. […] Plates were then washed 4 times with PBST and monoclonal mouse anti-amyloid precursor protein/amyloid beta antibody, purchased from Cell Signaling Technology was added at a 1:500 dilution in 1% BSA in PBST and incubated for 1 hour at room temperature with shaking. Plates were washed 4× in PBST and donkey anti mouse HRP-conjugated secondary antibody from Jackson ImmunoResearch Laboratories was added at 1:10,000 in PBST and incubated 1 hour at room temperature with shaking, then washed 4 times in PBST. […] Sulfuric acid (5N) was added to each well to stop the reaction, and the absorbance at 492 nm was read on a Biotek Synergy II plate reader.

amyloid β1-42 (Aβ1-42) [2] = target: T1, amyloid β1-42 (Aβ1-42); assay: ELISA, peptide coated, Aβ1-42 added (FIG. 21)
Description: as §1

amyloid β1-42 (Aβ1-42) [3] = target: T1, amyloid β1-42 (Aβ1-42); assay: cell-based or functional assay
amyloid β1-42 (Aβ1-42) [4] = target: T1, amyloid β1-42 (Aβ1-42); assay: ELISA, peptide coated at 5 µg/ml, 150 nM Aβ1-42 added, anti-Aβ antibody, A492 (FIG. 3)
Description: as §1

amyloid β1-42 (Aβ1-42) [5] = target: T1, amyloid β1-42 (Aβ1-42); assay: ELISA, peptide coated at 5 µg/ml, 150 nM Aβ1-42 added, anti-Aβ antibody, A492 (FIG. 2)
Description: as §1

Binder: GTLCTVAGWGRVSMRRGTDTLREVQL [CG-derived peptide CG119-144 (wild-type)]
binding result (amyloid β1-42 (Aβ1-42) [2]): binds

Binder: [AEEA][AEEA]RRRRGTRCQVAGWGSQRSGGRLSRFPRFVNVR [5RMP-modified CAP37-derived peptide 120-146 QR]
binding result (amyloid β1-42 (Aβ1-42) [4]): binds

Binder: [AEEA][AEEA]RRRRGTRCQVAGWGSWRSGGRLSRFPRFVNVR [CAP37-derived peptide 120-146 WR 5RMP]
IC50 of inhibition of Aβ1-42 fibrillation (Thioflavin T fluorescence) (amyloid β1-42 (Aβ1-42) [3]): ~1000 nM
molar ratio peptide/Aβ1-42 at the IC50 of fibrillation (amyloid β1-42 (Aβ1-42) [3]): ~0.1 molar ratio

Binder: GTRCQVAGWGSQRSGGRLSRFPRFVNV [CAP37-derived peptide 120-146 QR (wild-type)]
binding result (amyloid β1-42 (Aβ1-42) [5]): binds

Binder: GTRCQVAGWGSWRSGGRLSRFPRFVNV [CAP37-derived peptide 120-146 WR (mutant)]
IC50 of inhibition of Aβ1-42 fibrillation (Thioflavin T fluorescence) (amyloid β1-42 (Aβ1-42) [3]): ~1000 nM
molar ratio peptide/Aβ1-42 at the IC50 of fibrillation (amyloid β1-42 (Aβ1-42) [3]): ~0.1 molar ratio

Other lines, results leading:

binding result (amyloid β1-42 (Aβ1-42) [1]): no binding
Binder: GTLCTVAGWGSMRRGTDTLREVQL [CG-derived mutant peptide CG119-144 ΔR129V130]

IC50 of inhibition of Aβ1-42 fibrillation (Thioflavin T fluorescence) (amyloid β1-42 (Aβ1-42) [3]): 3100 nM
molar ratio peptide/Aβ1-42 at the IC50 of fibrillation (amyloid β1-42 (Aβ1-42) [3]): 0.33 molar ratio
Binder: GTLCTVAGWGRVSMRRGTRTLREVQL [CG-derived mutant peptide CG119-144 D137R]

IC50 of inhibition of Aβ1-42 fibrillation (Thioflavin T fluorescence) (amyloid β1-42 (Aβ1-42) [3]): 3.8 nM
fold increase of the fibrillation IC50 in the presence of chymostatin (amyloid β1-42 (Aβ1-42) [3]): 17 fold
molar ratio CG/Aβ1-42 at the IC50 of fibrillation (amyloid β1-42 (Aβ1-42) [3]): 0.00038 molar ratio
B1: cathepsin G (CG), full-length (enzyme, human, UniProt P08311 21-244, looked up)
chain: IIGGRESRPHSRPYMAYLQIQSPAGQSRCGGFLVREDFVLTAAHCWGSNINVTLGAHNIQRRENTQQHITARRAIRHPQYNQRTIQNDIMLLQLSRRVRRNRNVNPVALPRAQEGLRPGTLCTVAGWGRVSMRRGTDTLREVQLRVQRDRQCLRIFGSYDPRRQICVGDRRERKAAFKGDSGGPLLCNNVAHGIVSYGKSSGVPPEVFTRVSSFLPWIRTTMRS

binding result (amyloid β1-42 (Aβ1-42) [5]): binds
Binder: NQGRHFCGGALIHARFVMTAASCFQ (also called CAP3720-44) [CAP37-derived peptide 20-44 CC (wild-type)]

binding result (amyloid β1-42 (Aβ1-42) [4]): binds
Binder: [AEEA][AEEA]RRRRNQGRHFCGGALIHARFVMTAASCFQR (cysteine pairing not given here, also called 20-44 CC 5RMP) [5RMP-modified CAP37-derived peptide 20-44 CC]

binding result (amyloid β1-42 (Aβ1-42) [2]): binds
Binder: GTLCTVAGWGRVSMRRGTDTLRPRVQL [CG-derived mutant peptide CG119-144 E141PR]

IC50 of inhibition of Aβ1-42 fibrillation (Thioflavin T fluorescence) (amyloid β1-42 (Aβ1-42) [3]): 876 nM
fold increase of the fibrillation IC50 in the presence of PMSF (amyloid β1-42 (Aβ1-42) [3]): 3.5 fold
molar ratio CAP37/Aβ1-42 at the IC50 of fibrillation (amyloid β1-42 (Aβ1-42) [3]): 0.091 molar ratio
B2: cationic antimicrobial protein of 37 kDa (CAP37), full-length (enzyme, human, UniProt P20160 27-248, looked up)
chain: IVGGRKARPRQFPFLASIQNQGRHFCGGALIHARFVMTAASCFQSQNPGVSTVVLGAYDLRRRERQSRQTFSISSMSENGYDPQQNLNDLMLLQLDREANLTSSVTILPLPLQNATVEAGTRCQVAGWGSQRSGGRLSRFPRFVNVTVTPEDQCRPNNVCTGVLTRRGGICNGDGGTPLVCEGLAHGVASFSLGPCGRGPDFFTRVALFRDWIDGVLNNPGP
